Measurements as given in paper PMC8618245, “Mechanisms of CP190 Interaction with Architectural Proteins in Drosophila Melanogaster” (International Journal of Molecular Sciences, 2021).

T1: 6×His-Thioredoxin-fused CP190 1–126 (BTB domain) (Drosophila melanogaster), Q24478
T1 chain: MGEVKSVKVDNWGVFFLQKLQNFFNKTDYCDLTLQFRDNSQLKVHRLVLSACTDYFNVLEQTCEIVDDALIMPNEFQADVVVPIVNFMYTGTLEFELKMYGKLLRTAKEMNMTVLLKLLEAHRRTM


Assays:
[1] = target: T1, 6×His-Thioredoxin-fused CP190 1–126 …; test: cross-linking; glutaraldehyde, thioredoxin-fused BTB domains at 5 μM, 10 min at room temperature, 20 mM HEPES pH 7.7, 150 mM NaCl, 20 mM imidazole, 1 mM β-mercaptoethanol; SDS-PAGE, silver staining; settings: remark: other sources report otherwise
[2] = target: the molecule itself; test: as above

Binder | stoichiometry N [1] | stoichiometry N [2]
6×His-Thioredoxin-fused CP190 1–126 (BTB domain), Q24478 1-126 (domain or fragment) MGEVKSVKVDNWGVFFLQKLQNFFNKTDYCDLTLQFRDNSQLKVHRLVLSACTDYFNVLEQTCEIVDDALIMPNEFQADVVVPIVNFMYTGTLEFELKMYGKLLRTAKEMNMTVLLKLLEAHRRTM | 2 | –
6×His-Thioredoxin-fused CP190 1–126 L118A (domain or fragment, Drosophila melanogaster, UniProt Q24478 1-126, looked up, CP190, Drosophila melanogaster, residues 1–126 (BTB domain); also called BTB^L118A; source: E. coli BL21, co-expressed with the GST fusion, in lysate (pull-down); bacterial expression (cross-linking)) MGEVKSVKVDNWGVFFLQKLQNFFNKTDYCDLTLQFRDNSQLKVHRLVLSACTDYFNVLEQTCEIVDDALIMPNEFQADVVVPIVNFMYTGTLEFELKMYGKLLRTAKEMNMTVLLKALEAHRRTM | – | 2
6×His-Thioredoxin-fused CP190 1–126 F15A (domain or fragment, Drosophila melanogaster, UniProt Q24478 1-126, looked up, CP190, Drosophila melanogaster, residues 1–126 (BTB domain); source: E. coli BL21, co-expressed with the GST fusion, in lysate (pull-down); bacterial expression (cross-linking)) MGEVKSVKVDNWGVAFLQKLQNFFNKTDYCDLTLQFRDNSQLKVHRLVLSACTDYFNVLEQTCEIVDDALIMPNEFQADVVVPIVNFMYTGTLEFELKMYGKLLRTAKEMNMTVLLKLLEAHRRTM | – | 2
6×His-Thioredoxin-fused CP190 1–126 V114N (domain or fragment, Drosophila melanogaster, UniProt Q24478 1-126, looked up, CP190, Drosophila melanogaster, residues 1–126 (BTB domain); source: E. coli BL21, co-expressed with the GST fusion, in lysate (pull-down); bacterial expression (cross-linking)) MGEVKSVKVDNWGVFFLQKLQNFFNKTDYCDLTLQFRDNSQLKVHRLVLSACTDYFNVLEQTCEIVDDALIMPNEFQADVVVPIVNFMYTGTLEFELKMYGKLLRTAKEMNMTNLLKLLEAHRRTM | – | 2
6×His-Thioredoxin-fused CP190 1–126 K117S (domain or fragment, Drosophila melanogaster, UniProt Q24478 1-126, looked up, CP190, Drosophila melanogaster, residues 1–126 (BTB domain); source: E. coli BL21, co-expressed with the GST fusion, in lysate (pull-down); bacterial expression (cross-linking)) MGEVKSVKVDNWGVFFLQKLQNFFNKTDYCDLTLQFRDNSQLKVHRLVLSACTDYFNVLEQTCEIVDDALIMPNEFQADVVVPIVNFMYTGTLEFELKMYGKLLRTAKEMNMTVLLSLLEAHRRTM | – | 2
6×His-Thioredoxin-fused CP190 1–126 V7A (domain or fragment, Drosophila melanogaster, UniProt Q24478 1-126, looked up, CP190, Drosophila melanogaster, residues 1–126 (BTB domain); also called BTB^V7A; source: E. coli BL21, co-expressed with the GST fusion, in lysate (pull-down); bacterial expression (cross-linking)) MGEVKSAKVDNWGVFFLQKLQNFFNKTDYCDLTLQFRDNSQLKVHRLVLSACTDYFNVLEQTCEIVDDALIMPNEFQADVVVPIVNFMYTGTLEFELKMYGKLLRTAKEMNMTVLLKLLEAHRRTM | – | 2
6×His-Thioredoxin-fused CP190 1–126 K19A (domain or fragment, Drosophila melanogaster, UniProt Q24478 1-126, looked up, CP190, Drosophila melanogaster, residues 1–126 (BTB domain); source: E. coli BL21, co-expressed with the GST fusion, in lysate (pull-down); bacterial expression (cross-linking)) MGEVKSVKVDNWGVFFLQALQNFFNKTDYCDLTLQFRDNSQLKVHRLVLSACTDYFNVLEQTCEIVDDALIMPNEFQADVVVPIVNFMYTGTLEFELKMYGKLLRTAKEMNMTVLLKLLEAHRRTM | – | 2
6×His-Thioredoxin-fused CP190 1–126 V114A (domain or fragment, Drosophila melanogaster, UniProt Q24478 1-126, looked up, CP190, Drosophila melanogaster, residues 1–126 (BTB domain); source: E. coli BL21, co-expressed with the GST fusion, in lysate (pull-down); bacterial expression (cross-linking)) MGEVKSVKVDNWGVFFLQKLQNFFNKTDYCDLTLQFRDNSQLKVHRLVLSACTDYFNVLEQTCEIVDDALIMPNEFQADVVVPIVNFMYTGTLEFELKMYGKLLRTAKEMNMTALLKLLEAHRRTM | – | 2
